{"source": "patent US20180073027", "about": "“CD117 Ligand-Drug Conjugates For Targeted Cancer Therapy” (THE METHODIST HOSPITAL SYSTEM, published 2018)", "target": "CD117 (KIT, c-Kit) (UniProt P10721 P10721:26-976)", "sequence (P10721 26-976, one chain of several)": "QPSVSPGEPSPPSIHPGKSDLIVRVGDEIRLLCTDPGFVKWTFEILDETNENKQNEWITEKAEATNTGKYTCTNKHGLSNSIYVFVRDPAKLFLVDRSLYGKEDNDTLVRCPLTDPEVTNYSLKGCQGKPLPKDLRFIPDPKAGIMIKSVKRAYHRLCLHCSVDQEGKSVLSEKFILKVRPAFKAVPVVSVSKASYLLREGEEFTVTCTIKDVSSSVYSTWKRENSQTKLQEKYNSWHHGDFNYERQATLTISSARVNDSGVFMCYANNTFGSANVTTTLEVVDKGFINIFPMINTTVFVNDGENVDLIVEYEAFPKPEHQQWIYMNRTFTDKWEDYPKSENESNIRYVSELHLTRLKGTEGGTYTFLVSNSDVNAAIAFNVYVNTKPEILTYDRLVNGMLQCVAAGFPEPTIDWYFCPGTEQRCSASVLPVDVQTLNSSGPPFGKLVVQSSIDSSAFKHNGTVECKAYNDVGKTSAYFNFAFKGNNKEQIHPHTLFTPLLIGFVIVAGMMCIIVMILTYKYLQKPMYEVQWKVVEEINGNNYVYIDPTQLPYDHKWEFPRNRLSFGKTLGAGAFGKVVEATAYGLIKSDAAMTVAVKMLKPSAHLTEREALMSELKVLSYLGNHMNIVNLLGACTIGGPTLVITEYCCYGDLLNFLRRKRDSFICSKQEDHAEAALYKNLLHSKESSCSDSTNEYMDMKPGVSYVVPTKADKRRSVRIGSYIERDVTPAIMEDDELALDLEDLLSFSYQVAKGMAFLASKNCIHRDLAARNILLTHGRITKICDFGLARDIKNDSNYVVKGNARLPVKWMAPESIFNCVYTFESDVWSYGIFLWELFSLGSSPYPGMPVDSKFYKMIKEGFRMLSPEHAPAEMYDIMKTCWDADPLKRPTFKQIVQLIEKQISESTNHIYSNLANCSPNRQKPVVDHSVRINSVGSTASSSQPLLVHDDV", "assay": "flow; HEL cells, room temperature 30 min; no binding to CD117-negative CA46, U937, MDA-MB-468, LNCaP cells", "conditions": "tags: endogenous on HEL AML cell line (ATCC) or primary AML marrow cells; label: 5'-Cy3; G4", "data": [{"binder": "CD117 aptamer #1F (full length) (ssDNA) DNA: GAGGCATACCAGCTTATTCAAGGGGCCGGGGCAAGGGGGGGGTACCGTGGTAGGACATAGTAAGTGCAATCTGCGAA", "values": [{"measurement": "Kd", "result": 6.3, "unit": "nM"}]}]}
